{
  "source": "patent US7989588B2",
  "about": "“Cell permeable peptide” (Osaka University, priority 2005, dated 2011)",
  "data": [
    {"tested_on": "A431 cells", "assay": "Evaluation of intracellular transfer ability of peptide (cytotoxicity test by PSIF; MTT assay)", "format": "cell-based, human", "conditions": "5 μL culture supernatant containing fusion body of peptide and PSIF, cycloheximide 10 μg/mL, 24 hours, viability of TAT peptide (Tat 48-60)-PSIF group taken as 100%", "description": "Subsequently, using a fusion body of the peptide and PSIF (protein synthesis inhibitory factor) obtained by recombining each library gene in a PSIF-expressing vector, the intracellular transfer activity of the peptide was evaluated using the cytotoxicity by PSIF as an indicator. […] The screening was performed using a supernatant of the culture of Escherichia coli producing the fusion body of the peptide and PSIF. As a result, it can be confirmed that the clone having the ability to penetrate into the cell is selectively enriched as the panning is repeated. It was successful to yield many clones having a higher introduction efficiency than TAT peptide currently described to be the most excellent in introduction efficiency.\nThe plasmids collected from the library (input) made and the libraries after the 2nd, 3rd and 4th panning were treated with NcoI (Toyobo Co., Ltd.) and NotI. A plasmid expressing the fusion body of the peptide and PSIF was constructed by incorporating the treated plasmid into PSIF expression vector pY7 (PSIF expression codons had been incorporated into pCantab5e) previously treated with NcoI and NotI using a ligation kit (Takara Shuzo Co., Ltd.). […]; A04646) or Pseudomonas microbial cell exotoxin (GenBank; K01397) (FIG. 6) was utilized.\nThe plasmid expressing the fusion body of the peptide and PSIF was introduced into TG1 by electroporation, and resulting colonies were randomly picked up into a 96-well plate (NUNC™) and cultured overnight. To a plate in which 100 μL of the 2YT medium containing 50 μg/mL of ampicillin and 2% glucose was newly added, 10 μL of the culture medium cultured overnight was added and cultured until OD600=0.4 to 0.5. The culture was centrifuged at 3,000 rpm for 20 minutes, the supernatant was removed, and 200 μL of the 2YT medium containing 1 mM IPTG (Sigma Aldrich Inc.) and 50 μg/mL of ampicillin was added to the plate, which was then cultured at 37° C. for 12 hours. The culture was centrifuged again at 3,000 rpm for 20 minutes, and the resulting supernatant was subjected to the following screening.\nA431 cells diluted at 1.0×10^4 cells/well with Opti-MEM (Invitrogen™ life technologies) were seeded in a 96-well plate, and cycloheximide (Wako Pure Chemical Industries Ltd.) at a final concentration of 10 μg/mL was added thereto. Then, 5 μL of the culture supernatant made according to the above method was added, and the cells were cultured at 37° C. under the saturated vapor pressure and 5% carbon dioxide gas phase for 24 hours. Subsequently, 10 μL/well of 5 mg/mL of MTT (Wako Pure Chemical Industries Ltd.) solution was added, and further cultured at 37° C. for 4 hours. Then, 100 μL/well of 20% SDS (Wako Pure Chemical Industries Ltd., Osaka, Japan)/0.01 N HCl was added and the plate was left stand in a dark place for 4 hours. The intracellular transfer ability of the peptide was evaluated using the cytotoxicity by PSIF introduced into the cells by the peptide as the indicator by measuring absorbance using a microplate reader (Test wave length: 595 nm/Reference wave length: 655 nm). Viability was calculated by making the viability in the group treated with the culture supernatant containing the fusion body of the TAT peptide (Tat 48-60) and PSIF 100%.", "values": [
      {"sequence": "GIASNGQLPTPKT [SEQ ID NO 5, cell permeable peptide, tested as fusion body with PSIF]", "Viability": "about 35%"},
      {"sequence": "GILLRNQVLPPQI [SEQ ID NO 3, cell permeable peptide, tested as fusion body with PSIF]", "Viability": "about 65%"},
      {"sequence": "GLFNWLQLRPPSW [SEQ ID NO 2, cell permeable peptide, tested as fusion body with PSIF]", "Viability": "about 80%"},
      {"sequence": "GRKKRRQRRRPPQ [SEQ ID NO 17, TAT peptide (Tat 48-60) derived from HIV Tat protein, reference compound]", "Viability": "100%"},
      {"sequence": "GSNFFYQHRLPFS [SEQ ID NO 1, cell permeable peptide, tested as fusion body with PSIF]", "Viability": "about 45%"},
      {"sequence": "GTSRANSYDNLKSETLTQ [SEQ ID NO 16, cell permeable peptide, tested as fusion body with PSIF]", "Viability": "about 15%"},
      {"sequence": "MSDPNMNPGTLGSSHILW [SEQ ID NO 10, cell permeable peptide, tested as fusion body with PSIF]", "Viability": "about 30%"},
      {"sequence": "QDGGTWHLVAYCAKSHRY [SEQ ID NO 9, cell permeable peptide, tested as fusion body with PSIF]", "Viability": "about 45%"},
      {"sequence": "RRRRNRTRRNRRRVR [SEQ ID NO 4, cell permeable peptide, tested as fusion body with PSIF]", "Viability": "about 93%"},
      {"sequence": "SGEHTNGPSKTSVRWVWD [SEQ ID NO 6, cell permeable peptide, tested as fusion body with PSIF]", "Viability": "about 35%"},
      {"sequence": "SMTTMEFGHSMITPYKID [SEQ ID NO 7, cell permeable peptide, tested as fusion body with PSIF]", "Viability": "about 45%"},
      {"sequence": "SPGNQSTGVIGTPSFSNH [SEQ ID NO 11, cell permeable peptide, tested as fusion body with PSIF]", "Viability": "about 45%"},
      {"sequence": "SPTRPTHQGLLPVSNKYT [SEQ ID NO 13, cell permeable peptide, tested as fusion body with PSIF]", "Viability": "about 77%"},
      {"sequence": "SSGANYFFNAIYDFLSNF [SEQ ID NO 15, cell permeable peptide, tested as fusion body with PSIF]", "Viability": "about 35%"},
      {"sequence": "STAPGSLQEDILDSVPA [SEQ ID NO 12, cell permeable peptide, tested as fusion body with PSIF]", "Viability": "about 85%"},
      {"sequence": "STHLQYHVNYTSRTVVSM [SEQ ID NO 8, cell permeable peptide, tested as fusion body with PSIF]", "Viability": "about 60%"},
      {"sequence": "YSSAYEWFNRYKQPYYEL [SEQ ID NO 14, cell permeable peptide, tested as fusion body with PSIF]", "Viability": "about 65%"}
    ]}
  ]
}
